This is an account of results in patent US20250179187A1 (REJUVERON SENESCENCE THERAPEUTICS, published 2025).

Where two headings read alike, the source gives them in different places.

For experiment [1], the target named is T1, human PD-L2 on CHO-K1 cells of the Promega PD-1/PD-L2 blockade bioassay (human, UniProt Q9BQ51 20-273).
T1 sequence (looked up): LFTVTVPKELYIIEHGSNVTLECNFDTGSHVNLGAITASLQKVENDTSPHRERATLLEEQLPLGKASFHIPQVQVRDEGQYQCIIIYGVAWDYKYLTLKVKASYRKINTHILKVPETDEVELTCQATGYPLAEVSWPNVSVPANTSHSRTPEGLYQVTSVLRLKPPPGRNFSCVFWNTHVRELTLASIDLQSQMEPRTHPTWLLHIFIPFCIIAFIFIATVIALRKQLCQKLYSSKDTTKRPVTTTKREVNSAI
As to the kind of experiment: cell-based or functional assay.

Experiment [2] has as its target T2, mouse PD-L2 on CHO-K1 cells over-expressing mPD-L2 GFP (mouse, UniProt Q9WUL5 20-247).
T2 construct: whole, on cells; also called cellular mPD-L2; not shown: GFP of the mPD-L2 GFP construct
T2 sequence (looked up): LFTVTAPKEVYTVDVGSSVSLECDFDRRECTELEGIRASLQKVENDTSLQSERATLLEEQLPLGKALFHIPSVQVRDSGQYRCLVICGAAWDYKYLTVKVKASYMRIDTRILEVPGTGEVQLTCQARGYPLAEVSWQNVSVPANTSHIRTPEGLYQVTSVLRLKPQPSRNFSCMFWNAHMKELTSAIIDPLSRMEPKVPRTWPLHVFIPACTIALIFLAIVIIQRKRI
In words: flow cytometry on CHO-K1 cells overexpressing mPD-L2, mean fluorescence. As to the method: CHO-K1 cells over-expressing either hPDL2-GFP or mPD-L2 GFP were detached, washed in phosphate buffered saline (PBS) and adjusted to a cell concentration of around 1 million cells in cytometry buffer (CB, PBS containing 1% […]). Around 80,000 cells were then distributed into a round-bottom 96 well plate and the plate was centrifuged for 3 minutes at 400 g at 4° C. and supernatant discarded. Appropriate antibody concentrations in 50 microliter volumes were added to the wells and incubated for 30 minutes at 6-8° C. The plate was washed 3 times with PBS and relevant secondary antibodies (either AlexaFluor 647 Goat anti-Mouse IgG (H+L) (Invitrogen A21235/lot 1915807) or AlexaFluor 647 Goat anti-Rat IgG (H+L) (Invitrogen A21247/lot 1921562) were added for 30 minutes at 4° C. Cells were again washed with PBS two times, resuspended in CB and analyzed in either the Sony ID7000 Spectral Cell analyzer (Sony) or the GALLIOS Flow Cytometer (Beckman-Coulter) was used. EC₅₀ was calculated using the Sigmoidal 4PL equation of the GraphPad Prism-9 software.

Experiment [3] has as its target T3, recombinant human PD-L2 (human PD-L2 antigen) (human, UniProt Q9BQ51 20-219, limits assumed).
T3 construct: The Biacore analyte and the ELISA antigen are only called human PD-L2 antigen / recombinant hPD-L2; Whole entry named; also called hPD-L2; recombinant hPD-L2
T3 sequence (looked up): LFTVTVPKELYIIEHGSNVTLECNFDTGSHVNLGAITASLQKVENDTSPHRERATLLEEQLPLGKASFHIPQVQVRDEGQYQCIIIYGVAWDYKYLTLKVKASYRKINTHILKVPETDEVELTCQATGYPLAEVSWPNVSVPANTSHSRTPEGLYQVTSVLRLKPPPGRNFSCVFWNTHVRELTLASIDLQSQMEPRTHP
In words: SPR (Biacore 8K), single cycle kinetics, antibody in culture supernatant, human PD-L2 antigen. From the text:
Table 2: Single cycle kinetic parameters of chimeric (VH0/VK0) and humanized variants (tested as cell culture supernatants) binding to human PD-L2 antigen as determined using the Biacore 8K. As used herein, the term “KD” is intended to refer to the dissociation equilibrium constant of a particular antibody-antigen interaction, ka is the binding rate constant and kd is the dissociation rate constant. The binding affinity of antibodies of the disclosed invention may be measured or determined by standard antibody-antigen assays. The relative KD was calculated by dividing the KD of the humanized variant by that of the VH0/VK0 assayed in the same experiment.
In general terms: SPR reads the build-up and loss of mass on a sensor chip optically.

Experiment [4] has as its target T1, human PD-L2 on CHO-K1 cells of the …. As to the kind of experiment: cell-based or functional assay. This is another data set of the same source.

B1: VH0/VK0 chimeric antibody (hIgG1 backbone) (antibody, V domains shown)
VH: QVQLQQSGAELVRPGTSVKVSCKASGYAFSNYFIEWVKQRPGQGLEWIGLNIPGSGGSNYAEKFKGKATLTADKSSSTAYMQLSSLTSEDSAVYFCARRRLPPDWYFDVWGTGTTVTVSS
VL: DVVMTQTPLSLPVSLGDQASISCRSSQSLVHSDGNTYLHWYLQKPGQSPKLLIYKVSNRFSGVPDRFSGSGSGTDFTLKISRVEAEDLGVYFCSQSTHVPWTFGGGTKLEIK
notes: Mouse variable regions on human IgG1 backbone, expressed in CHO cells; also called chimeric anti-PDL2 lead mAb VH0/VK0
As a reminder, the EC50 is the concentration that produces a half-maximal response. The Kd is the free concentration of one partner at which half of the binding sites on the other are occupied at equilibrium, for simple one-to-one binding. A word on the koff: it is the rate constant with which the complex falls apart. For orientation: kon means a measure of how fast the partners come together. On to B1, for which, in experiment [1], the “EC50 (PD-1/PD-L2 blockade reporter assay, luminescence)” value was determined as 0.64 nM. The molecule also yielded an EC50 in experiment [2] of 0.16 nM. In experiment [3], the Kd was 0.0358 nM, the “Relative KD (KD of variant / KD of VH0/VK0)” value turned out to be 1, the off-rate constant (koff) worked out at 9.72e-05 s⁻¹ and the kon is 2.72e+06 M⁻¹ s⁻¹.

B2: VH6/VK3 (antibody, V domains shown)
VH: QVQLVQSGAEVKKPGSSVKVSCKASGYSFSNYFIEWVKQPPGKGLEWIGLNIPGSGGSNYAEKFKGRVTITADKSTSTAYMELSSLRSEDTAVYYCARRRLPPDWYFDVWGQGTTVTVSS
VL: DVVMTQSPLSLPVTLGQPASISCRSSQSLVHSGGNTYLHWYQQKPGQPPKLLIYKVSNRFSGVPDRFSGSGSGTDFTLKISRVEAEDVGVYFCSQSTHVPWTFGGGTKVEIK
notes: hIgG1 backbone, CHO expressed
Take B2: the “EC50 (PD-1/PD-L2 blockade reporter assay, luminescence)” value in experiment [1] worked out at 0.62 nM. Moreover, the “EC50 (PD-1/PD-L2 blockade reporter assay, luminescence)” value in experiment [4] came out at 1.11 nM. Further, in experiment [3], the Kd amounted to 0.262 nM, the “Relative KD (KD of variant / KD of VH0/VK0)” value was determined as 7.32 and the koff worked out at 0.000444 s⁻¹.

B3: VH8/VK1 (antibody, V domains shown)
VH: QVQLVQSGAEVKKPGSSVKVSCKASGYAFSNYFIEWVKQPPGKGLEWIGLNIPGSGGSNYAEKFKGRATITADKSTSTAYMELSSLRSEDTAVYYCARRRLPPDWYFDVWGQGTTVTVSS
VL: DVVMTQSPLSLPVTLGQPASISCRSSQSLVHSDGNTYLHWYQQKPGQPPKLLIYKVSNRFSGVPDRFSGSGSGTDFTLKISRVEAEDVGVYFCSQSTHVPWTFGGGTKVEIK
notes: hIgG1 backbone, CHO expressed
Regarding B3, in experiment [3], the Kd was 0.053 nM, the “Relative KD (KD of variant / KD of VH0/VK0)” value turned out to be 1.48 and the off-rate (koff) stood at 0.00012 s⁻¹.

B4: VH8/VK2 (antibody, V domains shown)
VH: QVQLVQSGAEVKKPGSSVKVSCKASGYAFSNYFIEWVKQPPGKGLEWIGLNIPGSGGSNYAEKFKGRATITADKSTSTAYMELSSLRSEDTAVYYCARRRLPPDWYFDVWGQGTTVTVSS
VL: DVVMTQSPLSLPVTLGQPASISCRSSQSLVHSDGNTYLHWYQQKPGQPPKLLIYKVSNRFSGVPDRFSGSGSGTDFTLKISRVEAEDVGVYYCSQSTHVPWTFGGGTKVEIK
notes: hIgG1 backbone, CHO expressed
With B4, the “EC50 (PD-1/PD-L2 blockade reporter assay, luminescence)” value in experiment [1] was 1.29 nM. This molecule came in with an EC50 in experiment [2] of 0.23 nM. Besides, in experiment [3], the Kd came to 0.0528 nM, the “Relative KD (KD of variant / KD of VH0/VK0)” value turned out to be 1.47 and the koff came to 0.000121 s⁻¹.

B5: VH8/VK3 (antibody, V domains shown)
VH: QVQLVQSGAEVKKPGSSVKVSCKASGYAFSNYFIEWVKQPPGKGLEWIGLNIPGSGGSNYAEKFKGRATITADKSTSTAYMELSSLRSEDTAVYYCARRRLPPDWYFDVWGQGTTVTVSS
VL: DVVMTQSPLSLPVTLGQPASISCRSSQSLVHSGGNTYLHWYQQKPGQPPKLLIYKVSNRFSGVPDRFSGSGSGTDFTLKISRVEAEDVGVYFCSQSTHVPWTFGGGTKVEIK
notes: hIgG1 backbone, CHO expressed
For B5, in experiment [3], the Kd was 0.244 nM, the “Relative KD (KD of variant / KD of VH0/VK0)” value was 6.82 and the koff was found to be 0.000388 s⁻¹.

B6: VH6/VK2 (antibody, V domains shown)
VH: QVQLVQSGAEVKKPGSSVKVSCKASGYSFSNYFIEWVKQPPGKGLEWIGLNIPGSGGSNYAEKFKGRVTITADKSTSTAYMELSSLRSEDTAVYYCARRRLPPDWYFDVWGQGTTVTVSS
VL: DVVMTQSPLSLPVTLGQPASISCRSSQSLVHSDGNTYLHWYQQKPGQPPKLLIYKVSNRFSGVPDRFSGSGSGTDFTLKISRVEAEDVGVYYCSQSTHVPWTFGGGTKVEIK
notes: hIgG1 backbone, CHO expressed
As for B6, the “EC50 (PD-1/PD-L2 blockade reporter assay, luminescence)” value in experiment [1] came to 0.64 nM. Further, in experiment [3], the Kd amounted to 0.0588 nM, the “Relative KD (KD of variant / KD of VH0/VK0)” value was determined as 1.64 and the koff stood at 0.000128 s⁻¹.

B7: VH7/VK2 (antibody, V domains shown)
VH: QVQLVQSGAELKKPGSSVKVSCKASGYAFSNYFIEWVKQPPGKGLEWIGLNIPGSGGSNYAEKFKGRATITADKSTSTAYMELSSLRSEDTAVYYCARRRLPPDWYFDVWGQGTTVTVSS
VL: DVVMTQSPLSLPVTLGQPASISCRSSQSLVHSDGNTYLHWYQQKPGQPPKLLIYKVSNRFSGVPDRFSGSGSGTDFTLKISRVEAEDVGVYYCSQSTHVPWTFGGGTKVEIK
notes: hIgG1 backbone, CHO expressed
With B7, the “EC50 (PD-1/PD-L2 blockade reporter assay, luminescence)” value in experiment [1] stood at 0.6 nM. In experiment [3], the Kd came to 0.0523 nM, the “Relative KD (KD of variant / KD of VH0/VK0)” value came to 1.46 and the koff is 0.000118 s⁻¹.

B8: VH6/VK1 (antibody, V domains shown)
VH: QVQLVQSGAEVKKPGSSVKVSCKASGYSFSNYFIEWVKQPPGKGLEWIGLNIPGSGGSNYAEKFKGRVTITADKSTSTAYMELSSLRSEDTAVYYCARRRLPPDWYFDVWGQGTTVTVSS
VL: DVVMTQSPLSLPVTLGQPASISCRSSQSLVHSDGNTYLHWYQQKPGQPPKLLIYKVSNRFSGVPDRFSGSGSGTDFTLKISRVEAEDVGVYFCSQSTHVPWTFGGGTKVEIK
notes: hIgG1 backbone, CHO expressed
For the molecule B8, the “EC50 (PD-1/PD-L2 blockade reporter assay, luminescence)” value in experiment [1] came to 0.82 nM. Further, in experiment [3], the Kd came to 0.0529 nM, the “Relative KD (KD of variant / KD of VH0/VK0)” value was 1.48 and the koff is 0.000121 s⁻¹.
